Data: article PMC11878792, “Structural basis for aminoacylation of cellular modified tRNA^Lys3 by human lysyl-tRNA synthetase” (Nucleic Acids Research, 2025)

Target: T1, human lysyl-tRNA synthetase (h-LysRS), wild type, full length (human, UniProt Q15046 1-597)
T1 construct: Human lysyl-tRNA synthetase (LysRS), full length, wild type; printed residue numbers (NTD 1-65, S207, linker 208-220) fit the cytosolic form; Dimer in the cryo-EM reconstructions; No removal of the His tag is described; also called wt LysRS; wt h-LysRS; source: E. coli BL21 (DE3), purified (PEI and ammonium sulfate precipitation, Ni-NTA, hydroxyapatite)
Experiment: cryo-EM structure; 10 uM h-LysRS-tRNALys3 (cellular modified, 1:1), 100 uM AIMP2-N36, 2.5 mM L-lysine, 2 mM AMP; complex formed 60 min at 4°C; 0.075% CHAPSO added before freezing
Conditions: both partners purified

T1 sequence (Q15046 whole entry): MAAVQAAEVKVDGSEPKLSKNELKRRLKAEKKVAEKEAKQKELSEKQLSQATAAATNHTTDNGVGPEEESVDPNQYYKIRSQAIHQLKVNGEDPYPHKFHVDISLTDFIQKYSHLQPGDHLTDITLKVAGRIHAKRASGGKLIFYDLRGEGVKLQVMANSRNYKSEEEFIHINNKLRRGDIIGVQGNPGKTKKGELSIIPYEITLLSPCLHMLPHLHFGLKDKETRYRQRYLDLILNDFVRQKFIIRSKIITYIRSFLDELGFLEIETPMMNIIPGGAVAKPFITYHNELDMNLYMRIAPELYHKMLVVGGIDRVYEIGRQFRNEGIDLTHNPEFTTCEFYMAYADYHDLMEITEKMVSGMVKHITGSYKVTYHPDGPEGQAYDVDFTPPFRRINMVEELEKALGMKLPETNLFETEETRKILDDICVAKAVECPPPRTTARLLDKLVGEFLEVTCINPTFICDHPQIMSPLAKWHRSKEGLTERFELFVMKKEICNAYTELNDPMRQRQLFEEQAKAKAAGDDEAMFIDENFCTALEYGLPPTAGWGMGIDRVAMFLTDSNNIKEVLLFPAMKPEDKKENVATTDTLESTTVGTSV

stoichiometry N: 2 copies per LysRS dimer
B1: AIMP2-N36 peptide (LysRS interacting N-terminal region of AIMP2) (peptide)
peptide: MPMYQVKPYHGGGAPLRVELPTCMYRLPNVHGRSYG
notes: also called AIMP2 peptide; p38; source: synthetic peptide, bought: Biosynth
